Read-outs that look alike come from different tables or passages of the source. One block for each binder: values may come before it.
Key:
[1] = molecular target: T1, recombinant full-length His-tagged human TDP-43 (2-414) (human, UniProt Q13148 2-414); experiment: direct ELISA, coated antigen
T1 construct: Amino terminal His tag, made in E. coli, purified in 8 M urea; also called full length TDP-43; full-length TDP-43
Method: (§1) The half maximal effective concentration (EC₅₀) of the human-derived TDP-43-specific antibodies for human TDP-43 and their target target-specificity was determined substantially as described in Example 2 above. Briefly, 96 well microplates (Corning) were coated with recombinant full length TDP-43 (Biogen Idec, USA), Escherichia coli extract and BSA (Sigma, Buchs, Switzerland), diluted to a concentration of 5 μg/ml in carbonate ELISA coating buffer (pH 9.6) overnight at 4° C. […] Non-specific binding sites were blocked for 1 hr. at room temperature with PBS containing 2% BSA (Sigma, Buchs, Switzerland). Human TDP-43-specific antibodies were diluted to the indicated concentrations and incubated 1 hr. at room temperature. Binding was determined using a donkey anti-human IgGγ-specific secondary antibody conjugated with HRP (Jackson ImmunoResearch, USA), followed by measurement of HRP activity in a standard colorimetric assay. EC₅₀ values were estimated by a non-linear regression using GraphPad Prism software (San Diego, USA).

[2] = molecular target: T1, recombinant full-length His-tagged …; experiment: direct ELISA, coated antigen; remark: listed apart in the source
Method: as §1

[3] = molecular target: T2, 6xHis-SUMO-TDP-43 (1-414), properly folded full length (human, UniProt Q13148 1-414); experiment: capture ELISA, antigen held by anti-6xHis antibody
T2 construct: Purified with KSCN and arginine, monomeric; captured on the plate by an anti-6xHis antibody; also called folded full-length TDP-43; 6xHis/SUMO tagged full length TDP-43; not shown: N-terminal 6xHis and SUMO tags from a modified pET19-b vector
T2 sequence (Q13148 whole entry): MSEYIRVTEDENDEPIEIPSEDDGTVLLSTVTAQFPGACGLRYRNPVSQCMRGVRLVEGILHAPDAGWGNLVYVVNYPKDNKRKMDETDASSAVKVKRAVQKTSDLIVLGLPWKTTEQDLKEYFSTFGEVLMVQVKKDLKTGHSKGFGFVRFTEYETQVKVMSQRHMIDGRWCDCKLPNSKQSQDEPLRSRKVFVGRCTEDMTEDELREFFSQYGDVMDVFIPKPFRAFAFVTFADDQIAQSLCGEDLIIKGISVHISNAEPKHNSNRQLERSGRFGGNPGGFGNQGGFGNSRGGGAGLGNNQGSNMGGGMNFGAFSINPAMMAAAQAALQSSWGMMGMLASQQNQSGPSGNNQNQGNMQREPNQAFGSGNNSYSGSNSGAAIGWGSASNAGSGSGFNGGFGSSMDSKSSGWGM
Method: (§2) Non-specific binding sites were blocked for 1 hr at RT with PBS containing 1% BSA (Sigma) and 0.05% Tween-20 (Fisher Scientific). 6×His-SUMO-TDP43 proteins at a concentration of 1.7 μM were allowed to bind to antibody-coated plates for 1 hr at RT in PBS buffer containing 1% BSA, 300 mM arginine and 0.1% PEG 5000, pH 7.5. Plates were incubated for 1 hr at RT with human antibodies of present invention, titrated in a three-fold dilution series, followed by HRP conjugated anti-human IgG Fc γ (Jackson ImmunoResearch) in PBST containing 1% BSA. HRP activity was measured in a standard colorimetric assay. EC₅₀ values were calculated using a four-parameter logistic curve fit on Softmax pro software (Molecular Devices).
(§3) We measured the binding affinity of the human-derived TDP-43 specific antibodies provided herein to properly folded 6×His/SUMO tagged TDP-43 using a capture ELISA in which native TDP-43 was immobilized without direct adsorption on the surface of the ELISA plate. This was achieved by immobilizing an anti 6×His antibody which then captured native TDP-43. […] After this immobilization step, binding by human antibodies was tested in regular buffers without interference of TDP-43 aggregation.

[4] = molecular target: T3, 6xHis-SUMO-TDP-43 (220-414) (human, UniProt Q13148 220-414); experiment: capture ELISA, antigen held by anti-6xHis antibody
T3 construct: Captured on the plate by an anti-6xHis antibody; also called 6xHis/SUMO tagged truncated TDP-43; not shown: N-terminal 6xHis and SUMO tags from a modified pET19-b vector
T3 sequence (Q13148 220-414): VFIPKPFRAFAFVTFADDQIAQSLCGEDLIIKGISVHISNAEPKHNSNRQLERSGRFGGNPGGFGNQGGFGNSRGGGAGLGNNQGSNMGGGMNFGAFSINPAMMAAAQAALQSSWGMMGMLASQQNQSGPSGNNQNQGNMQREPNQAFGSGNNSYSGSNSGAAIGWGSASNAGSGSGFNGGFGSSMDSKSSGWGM
Method: as §2, §3

[5] = molecular target: T4, His-huTDP-43 domain I (amino acid residues 2-106) (human); experiment: Western blot, 300 ng recombinant protein per lane, primary antibody 10 nM
T4 construct: Amino terminal His-tagged fragment, E. coli; also called N-terminal domain
T4 chain: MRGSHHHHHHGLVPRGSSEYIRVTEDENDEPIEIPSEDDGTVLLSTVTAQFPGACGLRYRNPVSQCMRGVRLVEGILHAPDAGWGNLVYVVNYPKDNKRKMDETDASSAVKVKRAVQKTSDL
Method: (§4) Non-specific binding sites were blocked for 1 hr. at room temperature with PBST containing 2% BSA (Sigma, Buchs, Switzerland). Blots were incubated overnight with primary antibodies (10 nM) followed by either a donkey anti-human IgGγ-specific secondary antibody conjugated with HRP (Jackson ImmunoResearch, USA) or a goat-anti mouse IgG (H+L)-specific secondary antibody conjugated with HRP (Jackson ImmunoResearch, USA). Blots were developed using ECL and ImageQuant 350 detection (GE Healthcare, Otelfingen, Switzerland).

[6] = molecular target: T5, His-huTDP-43 domain II (amino acid residues 99-204) (human); experiment: as above
T5 construct: Amino terminal His-tagged fragment, E. coli
T5 chain: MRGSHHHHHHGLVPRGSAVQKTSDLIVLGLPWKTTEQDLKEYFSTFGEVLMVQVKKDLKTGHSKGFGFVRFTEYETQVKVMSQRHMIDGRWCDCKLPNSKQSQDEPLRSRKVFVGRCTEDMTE
Method: as §4

[7] = molecular target: T6, His-huTDP-43 domain III (amino acid residues 183-273) (human); experiment: as above
T6 construct: Amino terminal His-tagged fragment, E. coli
T6 chain: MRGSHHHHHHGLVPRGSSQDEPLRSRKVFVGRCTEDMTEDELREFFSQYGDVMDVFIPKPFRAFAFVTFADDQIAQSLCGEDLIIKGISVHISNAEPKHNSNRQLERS
Method: as §4

[8] = molecular target: T4, His-huTDP-43 domain I (amino acid …); experiment: direct ELISA, His-tagged TDP-43 fragments coated at 6.6 ug/ml, OD 450
Method: (§5) Non-specific binding sites were blocked for 1 hr. at room temperature with PBST containing 2% BSA (Sigma, Buchs, Switzerland). Antibodies were incubated 1 hr. at room temperature. Binding was determined using either a donkey anti-human IgGγ-specific antibody conjugated with HRP (Jackson ImmunoResearch, USA) or a goat-anti mouse IgG (H+L)-specific secondary antibody conjugated with HRP (Jackson ImmunoResearch, USA)., followed by measurement of HRP activity in a standard colorimetric assay.

[9] = molecular target: T5, His-huTDP-43 domain II (amino acid …); experiment: as above
Method: as §5

[10] = molecular target: T6, His-huTDP-43 domain III (amino acid …); experiment: as above
Method: as §5

B2: NI-205.14H5 (antibody, human IgG1, V domains shown)
VH: EVQLLESGGGLVQPGGSLRLSCAASGFTFRNYAMAWVRQAPGKGLEWVSAIPARGDKTYYADSVRGRFTISRDISKSALYLQMNSLRVEDTAVYYCAKAHHLYNKNFDYWGQGTLVTVSS
VL: EIVLTQSPGTLSLSPGETVTLSCRASQSVSSSNLAWYQQKPGQAPRLLIYGASSRATGIPDRFSGRGSGTDFTLTISRLEPEDFAVYYCQHYGTFGQGTKVDIK
notes: Human-derived
EC50 [2]: > 100 nM | EC50 [3]: > 100 nM

B3: NI-205.10D3 (antibody, human IgG1, V domains shown)
VH: QVQLQESGPGLVKPSETLSLTCTVSGGSITDYYWSWIRQPPGKGLEWIGYIHDSGTTRYNPSLTSRLSMSLDTSTNQVSLRLTSVTAADTAVYYCAKVPDYWGQGTLVTVSS
VL: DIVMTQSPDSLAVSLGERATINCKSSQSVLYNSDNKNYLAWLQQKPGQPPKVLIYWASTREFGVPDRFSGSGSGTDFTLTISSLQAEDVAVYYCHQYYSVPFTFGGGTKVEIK
notes: Human-derived
EC50 [2]: 7.3 nM | EC50 [3]: > 90 nM | EC50 [4]: 20.5 nM | binding result [5]: no binding (tested: 10 nM) | binding result [6]: no binding (tested: 10 nM) | binding result [7]: no binding (tested: 10 nM)

B5: NI-205.8F8 (antibody, human IgG1, V domains shown)
VH: EVQLLESGGGLVQPGGSLRLSCAASGYTFSYYAMSWVRQAPGKGLEWVSTIGDSGSTTHYADSVKGRFTISRDNSKSTLYLQMNSLRAEDTAVYYCAKGLGPVAAIGDYWGQGTLVTVSS
VL: QSVLTQPPSASGTPGQRVTISCSGSSSNIGSNNVYWYQQLPGTAPKLLVYRNNQRPSGVPDRVSGSKSGSSASLAISGLRSEDEADYYCAAWDDSLRGYVFGTGTKVTVL
notes: Human-derived
binding result [2]: no binding | EC50 [3]: > 94 nM

B7: NI-205.25F3 (antibody, human IgG1, V domains shown)
VH: QVQLVESGGGVVQPGRSLRLSCAASGFTFSNYVMYWVRQAPGKGLEWVAFISYDGSNKYYPDSVKGRFTISRDNSMNTLYLQMDSLRAEDTAVYYCARDTYQYDSSTYYPYFYYYGMDVWGQGTTVTVSS
VL: QSALTQPASVSGSPGQSITISCIGTSSDVGGYNYVSWYQQHPGKAPKLMIYEVSNRPSGVSSRFSGSKSGNTASLTISGLQSEDEADYYCSSFASSSTSVTFGGGTKLTVL
notes: Human-derived
EC50 [1]: 13.3 nM | EC50 [2]: 13.3 nM | EC50 [3]: > 120 nM | EC50 [4]: > 100 nM | binding result [8]: no binding | binding result [9]: no binding | binding result [10]: no binding

Other lines, results leading:

EC50 [1]: 7.2 nM | EC50 [2]: 7.2 nM | EC50 [3]: 16.3 nM | EC50 [4]: 9.7 nM | binding result [5]: no binding (tested: 10 nM) | binding result [6]: no binding (tested: 10 nM) | binding result [7]: no binding (tested: 10 nM)
B1: NI-205.15F12 (antibody, human IgG1, V domains shown)
VH: QVQLVQSGTAVKKPGASVKVSCKASGFSFNGYYMHWVRQAPGQGLEWMGVINPNGGSTNYAQKFKGRITMSADTPARSVSMELGSLRSDDTAMYYCARLPVNIEVLDLWGQGTLVTVSS
VL: DIVMTQSPDSLAVSLGERATINCRSSQTVLFSSNDKNYLAWYQQKPGQPPKLLIYWASVRASGVPDRFSGSGSGTDFSLTINGLQAEDVAVYYCQQSSTAPLTFGGGTKVEIK
notes: Human-derived

EC50 [2]: > 41 nM | EC50 [3]: 41 nM | EC50 [4]: 19.4 nM
B4: NI-205.31D2 (antibody, human IgG1, V domains shown)
VH: EVQLLESGGGSVQPGGSLRLSCAASGFTFSTYVMSWVRQAPGKGLEWVSAISRRGGSTYYADSVKGRFTISRDNSKNTLYLQMNSLRAEDTAVYYCAKDRWLTGRTGGVFDIWGQGTMVTVSS
VL: not shown
notes: Human-derived

EC50 [2]: 15.3 nM | EC50 [3]: 30.9 nM | EC50 [4]: 6.45 nM | binding result [5]: no binding (tested: 10 nM) | binding result [6]: no binding (tested: 10 nM) | binding result [7]: no binding (tested: 10 nM)
B6: NI-205.10H7 (antibody, human IgG1, V domains shown)
VH: QVQLVESGGGVVQPGRSLRLSCAASGFTFSNYAMHWVRQAPGKGLEWVAVIWYDGSKKYYGDSVKGRFTISRDNPKNTLYLQMNSLRVEDTAIYYCVPDAFDMWGQGTMVTVSS
VL: DIVMTQTPLSSPVTLGQPASISCRSSQSLVHTDGKTYLSWLHQRPGQPPRPLIYKMSKRFSGVPDRFSGSGAETEFTLKISRVEAEDVGIYYCLQLTQFPITFGQGTRLEIK
notes: Human-derived

EC50 [2]: > 72 nM | EC50 [3]: > 72 nM | EC50 [4]: > 60 nM
B8: NI-205.36D5 (antibody, human IgG1, V domains shown)
VH: QVQLVESGGGVVQPGRSLRLSCAASRFTFSSYGMHWVRQAPGKGLEWVALIYYDATQKYYADSVKGRFTISRDNSKNALYLQMTSLRADDTAVYYCARDLPYHYHRSASFAPADTWGQGTLVTVSS
VL: EIVLTQSPGTLSLSPGERATLSCRASQTISNNYLAWYQQKPGQAPRLLVYAASSRATGIPDRFYGSGSGADFTLTISRLEPEDFVVYYCQQYGSSPITFGQGTRLEIK
notes: Human-derived

EC50 [1]: 7.2 nM | EC50 [2]: 7.2 nM | EC50 [3]: 34 nM | EC50 [4]: 4.6 nM | binding result [8]: no binding | binding result [7]: no binding (tested: 10 nM)
B9: NI-205.8A2 (antibody, human IgG1, V domains shown)
VH: QVQLVESGGGVVQPGKSLRLSCAASGFTFRDHGMHWVRQAPGKGLEWVAVIWLDGSSRFYADSVEGRFTISRDNSKNTLYLQLTSLRAEDTAIYYCARDRVASEGTAFDVWGQGTMVTVSS
VL: EIVLTQSPATLSLSPGERATLSCWASQNVNHYLVWYQQRPGQAPRLLLYDTSVRAAGIPARFIGSGSGTHFTLTISSLEPEDSAVYYCQHRSDWTFGQGTKVEIK
notes: Human-derived

Reference: patent US20170152308A1 (Biogen, published 2017)
